Results: paper PMC9943654, “The recognition mode between hsRBFA and mitoribosome 12S rRNA during mitoribosomal biogenesis”

Legend:
[1] = target: T1, hsRBFA Nt (Homo sapiens, UniProt Q8N0V3 42-89); assay: EMSA; complex stays in well; EMSA: 20 mM Tris-HCl pH 8.0, 200 mM NaCl, 37 C 30 min, 200 nM ssRNA or 2 uM dsRNA; FP: same buffer, 40 nM 5'-FAM RNA, temperature not stated; details: protein: recombinant, tags: His6-MBP N-terminal, hairpin
T1 chain: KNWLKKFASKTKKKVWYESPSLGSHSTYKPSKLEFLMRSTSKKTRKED

[2] = target: T2, hsRBFA Nt-KH (Homo sapiens, UniProt Q8N0V3 42-201); assay: EMSA; EMSA: 20 mM Tris-HCl pH 8.0, 200 mM NaCl, 37 C 30 min, 200 nM ssRNA or 2 uM dsRNA; FP: same buffer, 40 nM 5'-FAM RNA, temperature not stated; details: protein: recombinant, tags: His6-MBP N-terminal
T2 sequence: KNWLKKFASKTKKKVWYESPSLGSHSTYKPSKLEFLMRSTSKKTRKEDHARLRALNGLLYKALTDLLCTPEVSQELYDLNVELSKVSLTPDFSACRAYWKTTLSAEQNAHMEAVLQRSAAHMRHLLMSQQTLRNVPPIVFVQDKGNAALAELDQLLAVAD

[3] = target: T3, hsRBFA KH-like (Homo sapiens, UniProt Q8N0V3 86-201); assay: as above; details: protein: recombinant, tags: His6-MBP N-terminal
T3 sequence: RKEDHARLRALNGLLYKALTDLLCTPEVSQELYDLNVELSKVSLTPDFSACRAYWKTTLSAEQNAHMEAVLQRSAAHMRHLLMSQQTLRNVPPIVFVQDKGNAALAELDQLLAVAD

GGCGUCACCCUCUUCGGAGACAAGUCGCC (structured_RNA) [h44]
binding result ([1]; label: 5'-FAM in FP): binds
binding result ([2]; label: 5'-FAM in FP, hairpin): binds
binding result ([3]; label: 5'-FAM in FP, hairpin): no binding

UAAGUGUACUGGAAAGUGCACUUG (structured_RNA) [h45]
binding result [1]: binds
binding result ([2]; hairpin): binds
binding result ([3]; hairpin): no binding

GGUGGCGGUGCUUCAUUCGUGAAGCGCGUCACC (structured_RNA) [h28]
binding result [1]: binds
binding result ([2]; hairpin): binds
binding result ([3]; hairpin): no binding

AUAAUAGAAGUAUUAU (structured_RNA) [AU]
binding result ([2]; hairpin): binds

CGCCGCGAAGGCGGCG (structured_RNA) [GC]
binding result ([2]; hairpin): binds

B1: DNA (dsDNA)
DNA 1: TTGGTCAG
DNA 2: CTGACCAA
binding result ([2]; blunt): binds

GACGAAC (ssRNA) [ssRNA-3'end]
binding result ([3]; single strand): no binding
